Measurements from patent US5336667A, “Method for inhibiting the ahesion of platelet with alboaggregins: platelet agonists which bind to platelet membrane glycoprotein IB” (Temple University of the Commonwealth System of Higher …, priority 1992, dated 1994).

Columns and labels:
[1] = target: T1, alboaggregin B (AL-B), Trimeresurus albolabris venom (Trimeresurus albolabris, UniProt P81115+P81116); assay: Effect of sugars on binding of AL-B to platelets (lectin test); conditions: sugar at concentrations up to 5 mg/ml
T1 sequence (P81115 24-156): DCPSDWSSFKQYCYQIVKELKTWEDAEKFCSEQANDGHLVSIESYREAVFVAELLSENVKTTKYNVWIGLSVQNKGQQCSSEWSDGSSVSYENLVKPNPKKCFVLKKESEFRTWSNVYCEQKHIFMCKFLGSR
T1 sequence (P81116 24-146): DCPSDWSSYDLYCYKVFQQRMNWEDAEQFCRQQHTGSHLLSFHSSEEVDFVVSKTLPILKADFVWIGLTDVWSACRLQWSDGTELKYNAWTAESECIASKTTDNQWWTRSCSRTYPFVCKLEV
Description: Several galactose-specific lectins that agglutinate platelets have been reported in snake venoms. Their presence can be detected by inhibition of lectin-induced agglutination by galactose or other sugars. In order to determine whether the alboaggregins function as lectins, we examined the effects of eight different sugars (lactose, galactose, galactosamine, mannosamine, glucosamine, N-acetyl glucosamine, α-methyl glucoside and α-methyl mannoside) at concentrations up to 5 mg/ml.
Binding of ^125 I-bovine vWF and 125I-alboaggregins to labeled platelets was carried out according to Kirby, J. Lab. Clin. Med. 100, 963-976 (1982). Platelets were diluted and incubated at 37° C. for at least 10 min. prior to performing binding studies. Radiolabeled proteins were diluted in Tris-saline buffer containing 1 mg/ml of BSA and preincubated with buffer or a sample to be tested for inhibitory activity. The platelet suspension (1.9×10^8 platelets/ml) was added to the radiolabeled protein (26 ng/ml) and incubated at 37° C. for different periods of time. Unlabeled AL-B (1.8 μg/ml or 8.6 μg/ml) was added to duplicate suspensions after 5 min. of incubation with ^125 I-AL-B. Platelets were separated from free ligand by centrifugation for 4 min. at 12000 g. Supernatant and pellets were counted in an […] gamma counter to determine the amount of free and platelet-bound radioactivity, respectively.

[2] = target: human platelet membrane glycoprotein Ib (human) (UniProt P07359); assay: unlabeled AL-C competing on platelets; competitor 125I-AL-B
[3] = target: human platelet membrane glycoprotein Ib (human) (UniProt P07359); assay: direct binding of 125I-AL-C to platelets
[4] = target: human platelet membrane glycoprotein Ib (human) (UniProt P07359); assay: unlabeled AL-C competing on platelets; competitor 125I-bovine vWF
[5] = target: human platelet membrane glycoprotein Ib (human) (UniProt P07359); assay: unlabeled AL-C competing on platelets; competitor 125I-AL-A
[6] = target: human platelet membrane glycoprotein Ib (human) (UniProt P07359); assay: unlabeled AL-C competing on platelets; competitor 125I-AL-C
[7] = target: human platelet membrane glycoprotein Ib (human) (UniProt P07359); assay: radioligand competition on platelets; competitor 125I-echicetin
[8] = target: human platelet membrane glycoprotein Ib (human) (UniProt P07359); assay: radioligand competition on fixed platelets; competitor 125I-bovine vWF
[9] = target: human platelet membrane glycoprotein Ib (human) (UniProt P07359); assay: Scatchard analysis of 125I-echicetin binding to fixed platelets, three experiments
[10] = target: human platelet membrane glycoprotein Ib (human) (UniProt P07359); assay: Scatchard analysis of 125I-echicetin binding to fixed platelets
[11] = target: human platelet membrane glycoprotein Ib (human) (UniProt P07359)
[12] = target: T1, alboaggregin B (AL-B), Trimeresurus albolabris venom; assay: Platelet agglutination induced by AL-B in the presence of inhibitors; assay type: cell-based
Description: (§1) Agglutination of platelet-rich plasma, washed platelets and fixed platelets by AL-B was performed according to the method described by Kirby, J Lab Clin. Med. 100, 963-976 (1982). Platelet agglutination was assayed at 37° C. with constant stirring at 1200 RPM in an aggregometer and the extent of light transmission change was measured after two minutes. AL-B was added to suspensions of (A) fixed washed platelets or (B) washed platelets at final concentrations of (A) 0.2, 0.4, 0.6, 0.9 and 1.7 μg/ml and (B) 0.12, 0.24 and 0.48 μg/ml, respectively. The platelet concentration was approximately 3×10^8 platelets/ml in each suspension. AL-B agglutinated both fixed platelets and washed platelets in a dose-dependent manner. Once platelets were maximally agglutinated by AL-B, addition of bovine vWF gave no further response.
(§2) Platelet agglutination induced by AL-A or AL-B was not inhibited by EDTA (10 raM) , soybean trypsin inhibitor (0.5 mg/ml) N-ethylmaleimide, (10 raM) or PGE1 (0.35 μM).

[13] = system: alboaggregin A (AL-A), Trimeresurus albolabris venom, SEQ ID NOS: 1, 2, 3 and 4; assay: Platelet agglutination induced by AL-A in the presence of inhibitors; assay type: cell-based
Description: as §1
All three alboaggregins agglutinated platelet rich plasma and fixed platelets directly. To induce the same amount of platelet agglutination by bovine vWF, twice as much vWF was required to obtain the same change in light transmission. […] Platelet agglutination activity of each of the alboaggregins was similar in terms of their EC50 values.
as §2

[14] = target: T2, human platelet membrane glycoprotein Ib (human, UniProt P07359); assay: radioligand competition on fixed platelets; competitor 125I-bovine vWF (0.57 µg/ml)
[15] = target: T2, human platelet membrane glycoprotein Ib; assay: unlabeled bovine vWF competing on platelets; competitor 125I-AL-A
[16] = target: T2, human platelet membrane glycoprotein Ib; assay: unlabeled bovine vWF competing on platelets; competitor 125I-AL-B
[17] = target: T2, human platelet membrane glycoprotein Ib; assay: unlabeled bovine vWF competing on platelets; competitor 125I-AL-C
[18] = target: T2, human platelet membrane glycoprotein Ib; assay: unlabeled bovine vWF competing on platelets; competitor 125I-bovine vWF
[19] = target: T2, human platelet membrane glycoprotein Ib; assay: radioligand competition on platelets; competitor 125I-echicetin

For `CO[C@H]1O[C@H](CO)[C@@H](O)[C@H](O)[C@@H]1O` [α-methyl mannoside], the “effect on the binding of AL-B to platelets” value (from here on “effect on the binding of AL-B”) [1] was “None of these sugars showed any effect”.

`N[C@H]1C(O)O[C@H](CO)[C@@H](O)[C@@H]1O` (stereo partly drawn) [glucosamine] was tested, and the “effect on the binding of AL-B” value [1] was “None of these sugars showed any effect”.

alboaggregin C (ligand) showed an IC50 [2] of 1 mg/L, a percent of total radioactivity added that bound [3] of 78% and an IC50 [4] of 0.2 mg/L. It also gave an IC50 [5] of 1.7 mg/L and an IC50 [6] of 0.3 mg/L.

For `OC[C@H]1O[C@@H](O[C@H]2[C@H](O)[C@@H](O)C(O)O[C@@H]2CO)[C@H](O)[C@@H](O)[C@H]1O` (stereo partly drawn) [lactose], the “effect on the binding of AL-B” value [1] was “None of these sugars showed any effect”.

In the case of `N[C@@H]1C(O)O[C@H](CO)[C@@H](O)[C@@H]1O` (stereo partly drawn) [mannosamine], the “effect on the binding of AL-B” value [1] is reported as “None of these sugars showed any effect”.

In the case of `CO[C@H]1O[C@H](CO)[C@@H](O)[C@H](O)[C@H]1O` [α-methyl glucoside], the “effect on the binding of AL-B” value [1] is reported as “None of these sugars showed any effect”.

In the case of `CC(=O)N[C@H]1C(O)O[C@H](CO)[C@@H](O)[C@@H]1O` (stereo partly drawn) [N-acetyl glucosamine], the “effect on the binding of AL-B” value [1] is reported as “None of these sugars showed any effect”.

echicetin (ligand) showed an IC50 [7] greater than 0.5 mg/L, an IC50 [8] of 0.2 mg/L and a Kd [9] of 0.03 µM. For the same molecule, the binding sites per platelet (binding sites per platelet) [10] was 45000, the concentration for 50% inhibition of AL-B-induced agglutination of fixed platelets [11] was 1.05 µg/mL and the concentration for 50% inhibition of botrocetin/human vWF-induced agglutination of fixed platelets [11] was 1.1 µg/mL. For the same molecule, the concentration for 50% inhibition of bovine vWF-induced agglutination of fixed platelets [11] was 0.4 µg/mL and the concentration for 50% inhibition of bovine vWF-induced agglutination of washed platelets [11] was 0.15 µg/mL.

In the case of galactose, the “effect on the binding of AL-B” value [1] is reported as “None of these sugars showed any effect”.

In the case of `O=C(O)CN(CCN(CC(=O)O)CC(=O)O)CC(=O)O` [EDTA], the “inhibition of platelet agglutination induced by AL-B” value (from here on “inhibition … by AL-B”) ([12]; EDTA 10 raM) is reported as “not inhibited” and the “inhibition of platelet agglutination induced by AL-A” value (“inhibition … by AL-A” for short) ([13]; EDTA 10 raM) is reported as “not inhibited”.

With `CCN1C(=O)C=CC1=O` [N-ethylmaleimide] the “inhibition … by AL-B” value ([12]; N-ethylmaleimide 10 raM) was “not inhibited” and the “inhibition … by AL-A” value ([13]; N-ethylmaleimide 10 raM) was “not inhibited”.

In the case of `N[C@H]1C(O)O[C@H](CO)[C@H](O)[C@@H]1O` (stereo partly drawn) [galactosamine], the “effect on the binding of AL-B” value [1] is reported as “None of these sugars showed any effect”.

In the case of `CCCCC[C@H](O)/C=C/[C@H]1[C@H](O)CC(=O)[C@@H]1CCCCCCC(=O)O` [PGE1], the “inhibition … by AL-B” value ([12]; PGE1 0.35 μM) is reported as “not inhibited” and the “inhibition … by AL-A” value ([13]; PGE1 0.35 μM) is reported as “not inhibited”.

B1: bovine von Willebrand factor (ligand)
chain: SLSCRPPMVKVVCPADNPRAEGLECTKTCQNYDLECMSTGCVSGCLPAPGMVRHENRCVALERCPCFHQGREYAPGDRVKVDCNSCVCQDRKWNCTDHVCDASCSALGLAHYFTFDGLKYLFPGECQYVLVQDHCGSNPGTFRVLVGNEGCSVPSLKCRKRITILVEGGEIELFD
B1 gave an IC50 [14] of roughly 10 mg/L, an IC50 [15] greater than 10 mg/L and an IC50 [16] greater than 10 mg/L. The IC50 [17] was greater than 10 mg/L, the IC50 [18] was 2.1 mg/L and the IC50 [19] was greater than 20 mg/L.
